Literature values as cited in article PMC2846785.

System: Cys

Arylamine N-acetyltransferase 2 (hamster NAT2) (Mesocricetus auratus (Syrian hamster))
pKa: 5.23 ± 0.03
